Measurements as given in publication PMC6959235, “A mosquito salivary protein promotes flavivirus transmission by activation of autophagy” (Nature Communications, 2020).

Molecular target: recombinant LRPPRC protein purified from 293F cells (human, UniProt P42704 60-1394)
Assay: ELISA
Details: both partners purified

B1: Aedes aegypti venom allergen-1 (AaVA-1), recombinant, from Drosophila S2 cells (natural protein)
chain: NYCDQSLCRRGPHVACNAPTQFGSACGQEPKFVKMDARMKNLLLKKHNELRAEIACGKHGFPQAARMPTLVWDDELAHIASFNARKCIFAHDKCRNTREFKFAGQNLAITAFAGYNFQAADRAENFTQEWFNEHKDCPKSYVDSYPMSHSGPQIGHFTQMVNDRAWKMGCSMVHYKNGRVIKYYLVCNYSMTNMIEEPIYTRGSAGSKCQTGQNPQYRGLCSPREKVRSESYRG
notes: also called AAEL000793; purified AaVA-1
- binding result: binds
